Patent US20090047240A1 (CBIO, published 2009)

Key:
Experiment in all cases: FRET on MonoMac 6 cells, unstimulated and LPS-stimulated
[1] = target: T1, Hsp70 (human, UniProt P0DMV8 2-641)
T1 construct: whole, on cells

[2] = target: T2, CXCR4 (human, UniProt P61073 1-352)
T2 construct: whole, on cells

[3] = target: T3, CD14 (human, UniProt P08571 20-345)
T3 construct: whole, on cells
T3 sequence (looked up): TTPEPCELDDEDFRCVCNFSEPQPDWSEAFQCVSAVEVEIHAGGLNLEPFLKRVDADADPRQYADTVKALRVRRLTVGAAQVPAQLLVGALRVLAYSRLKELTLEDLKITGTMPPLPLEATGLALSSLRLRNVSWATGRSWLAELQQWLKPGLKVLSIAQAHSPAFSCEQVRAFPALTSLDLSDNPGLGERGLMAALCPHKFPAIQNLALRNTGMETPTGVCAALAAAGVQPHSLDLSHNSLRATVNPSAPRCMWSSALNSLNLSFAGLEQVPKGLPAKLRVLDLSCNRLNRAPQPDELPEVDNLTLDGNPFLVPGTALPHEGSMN

[4] = target: T4, TLR4 (human, UniProt O00206 24-839)
T4 construct: whole, on cells; also called Toll-like receptor 4
T4 sequence (O00206 24-839): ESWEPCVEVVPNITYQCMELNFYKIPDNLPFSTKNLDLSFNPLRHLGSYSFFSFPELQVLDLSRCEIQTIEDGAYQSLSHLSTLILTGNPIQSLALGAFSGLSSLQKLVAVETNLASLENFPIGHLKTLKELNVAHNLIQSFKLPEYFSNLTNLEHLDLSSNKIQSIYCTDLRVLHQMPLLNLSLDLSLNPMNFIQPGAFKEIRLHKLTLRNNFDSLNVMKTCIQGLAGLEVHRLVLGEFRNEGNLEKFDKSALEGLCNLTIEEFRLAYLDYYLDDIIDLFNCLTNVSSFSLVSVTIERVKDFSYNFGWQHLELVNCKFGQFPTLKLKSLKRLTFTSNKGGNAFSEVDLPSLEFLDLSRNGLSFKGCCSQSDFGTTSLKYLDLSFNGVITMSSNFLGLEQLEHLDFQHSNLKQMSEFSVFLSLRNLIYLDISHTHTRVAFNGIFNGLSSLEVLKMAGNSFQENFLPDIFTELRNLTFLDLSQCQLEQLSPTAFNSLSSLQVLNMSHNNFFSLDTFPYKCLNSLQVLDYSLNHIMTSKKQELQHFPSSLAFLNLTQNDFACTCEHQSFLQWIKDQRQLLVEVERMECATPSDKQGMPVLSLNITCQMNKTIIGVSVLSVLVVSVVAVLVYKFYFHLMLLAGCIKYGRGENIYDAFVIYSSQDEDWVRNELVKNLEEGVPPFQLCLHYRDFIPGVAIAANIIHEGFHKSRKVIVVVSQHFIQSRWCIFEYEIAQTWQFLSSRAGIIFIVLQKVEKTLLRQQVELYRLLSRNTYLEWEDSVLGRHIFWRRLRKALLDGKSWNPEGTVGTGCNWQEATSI

Measured: binding result

T2 sequence (P61073 whole entry): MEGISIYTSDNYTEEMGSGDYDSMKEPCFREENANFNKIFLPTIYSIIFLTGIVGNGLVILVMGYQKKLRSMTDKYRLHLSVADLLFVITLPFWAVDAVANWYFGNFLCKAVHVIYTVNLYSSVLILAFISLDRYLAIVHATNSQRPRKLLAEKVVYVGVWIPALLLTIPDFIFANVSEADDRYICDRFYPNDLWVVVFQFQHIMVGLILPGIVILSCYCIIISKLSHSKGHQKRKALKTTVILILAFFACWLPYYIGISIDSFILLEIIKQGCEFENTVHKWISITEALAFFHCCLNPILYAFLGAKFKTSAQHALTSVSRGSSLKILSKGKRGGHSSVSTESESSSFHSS
T1 sequence (P0DMV8 2-641): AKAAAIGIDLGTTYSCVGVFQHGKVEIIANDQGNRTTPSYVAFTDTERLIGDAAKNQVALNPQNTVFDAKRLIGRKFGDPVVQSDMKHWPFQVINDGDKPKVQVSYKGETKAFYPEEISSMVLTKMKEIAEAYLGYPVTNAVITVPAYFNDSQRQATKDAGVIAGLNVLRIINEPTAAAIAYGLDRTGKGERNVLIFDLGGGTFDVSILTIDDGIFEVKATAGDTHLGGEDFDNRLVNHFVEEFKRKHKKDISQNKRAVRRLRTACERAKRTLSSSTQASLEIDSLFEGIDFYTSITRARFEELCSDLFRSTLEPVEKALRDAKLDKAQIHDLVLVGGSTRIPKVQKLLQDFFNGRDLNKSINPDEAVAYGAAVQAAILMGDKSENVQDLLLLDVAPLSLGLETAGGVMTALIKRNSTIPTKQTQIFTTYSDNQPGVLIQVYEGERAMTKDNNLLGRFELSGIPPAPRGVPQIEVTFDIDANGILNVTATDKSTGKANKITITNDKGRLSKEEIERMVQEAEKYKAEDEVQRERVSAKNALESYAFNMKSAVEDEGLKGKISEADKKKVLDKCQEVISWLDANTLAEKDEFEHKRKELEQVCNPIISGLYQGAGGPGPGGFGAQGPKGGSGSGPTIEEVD

B1: E. coli GroES (other)
chain: MNIRPLHDRVIVKRKEVETKSAGGIVLTGSAAAKSTRGEVLAVGNGRILENGEVKPLDVKVGDIVIFNDGYGVKSEKIDNEEVLIMSESDILAIVEA
notes: also called E. coli homologue of Cpn10
no binding: all assays above
